Among the data in US20260218128A1 are PE fluorescence statistic, name not given values, retold here.

In experiment [1] the target is NKG2D ligands. Nature of the experiment: flow cytometry, human primary NK cells after 24 h 1:1 co-culture with KG-1 cells, NKG2D-Fc protein 5 µg/mL, anti-human IgG Fc-PE; histogram peak near 10^2; control NK only+PBS: 12.0.
The target of experiment [2] is NKG2D ligands. Nature of the experiment: flow cytometry, human primary NK cells after 24 h 1:1 co-culture with THP-1 cells, NKG2D-Fc protein 5 µg/mL, anti-human IgG Fc-PE; histogram peak near 10^2; control NK only+PBS: 12.0. Background: Flow cytometry measures light scatter and fluorescence of single cells or particles in a stream.
For experiment [3], the target named is NKG2D ligands. Nature of the experiment: flow cytometry, human primary NK cells after 24 h 1:1 co-culture with HL60 cells, NKG2D-Fc protein 5 µg/mL, anti-human IgG Fc-PE; histogram peak near 10^2; control NK only+PBS: 12.0.
Experiment [4] deals with NKG2D ligands. Nature of the experiment: flow cytometry, human primary NK cells after 24 h 1:1 co-culture with NKG2D-UCAR-T cells, NKG2D-Fc protein 5 µg/mL, anti-human IgG Fc-PE; histogram peak near 10^2; control NK only+PBS: 12.0.
Experiment [5] addresses NKG2D ligands. The experiment can be described thus: flow cytometry, human primary NK cells after 24 h 1:1 co-culture with MV4-11 cells, NKG2D-Fc protein 5 µg/mL, anti-human IgG Fc-PE; faint histogram near 10^2; control NK only+PBS: 12.0.

Sequence of NKG2D-Fc protein (P26718 78-216 limits assumed): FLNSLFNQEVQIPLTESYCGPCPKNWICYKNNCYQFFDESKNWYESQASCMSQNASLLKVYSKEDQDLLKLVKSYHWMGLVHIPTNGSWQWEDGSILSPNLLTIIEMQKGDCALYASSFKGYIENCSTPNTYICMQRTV

With “NKG2D-Fc protein (from UniProt P26718) (Fc fusion)”, the PE fluorescence statistic, name not given was found to be 99.7 in the experiment with NKG2D ligands [1]; 125 with NKG2D ligands [2]; 107 in the experiment with NKG2D ligands [3]; 95 with NKG2D ligands [4]; 124 in the experiment with NKG2D ligands [5].
